In article PMC3696110, “Hsp70 Oligomerization Is Mediated by an Interaction between the Interdomain Linker and the Substrate-Binding Domain” (PLoS ONE, 2013):

Experiments:
[1] = previously reported; ref [S3]; cited from earlier work
Experimental: Supplementary file pone.0067961.s005.tif: Figure S4 Concentration dependency of the analytical SEC chromatograms of the 'C-term' variant. The protein concentrations used were 1µM (black line), 2µM (orange line), 5 µM (pink line), 10 µM (cyan line), 70 µM (red line) and 125 µM (green line). Essentially the same elution profile was found for all the protein concentrations used. At the top the chromatogram the previously reported Stokes radii of the standard proteins used to calibrate the column are reported: conalbumin (40.4 Å), ovalbumin (30.5 Å), carbonic anhydrase (23.6 Å) [S3], ribonuclease ...

[2] = nESI-MS relative populations of oligomeric forms; format: physicochemical, human; details: 6-15 µM protein, 150 mM ammonium acetate, pH 7.4, estimated error 5% (SD of 3-4 independent experiments)
Experimental: Prior to MS analysis, samples were buffer exchanged into 150 mM ammonium acetate, pH 7.4, using Micro Bio-spin 6 columns (Bio-Rad, Digilab Division, Cambridge, MA, USA). For all the experiments protein concentrations ranging from 6 to 18 µM were used. In the case of the substrate binding experiments, proteins were analyzed in the presence of a 1: 1 molar ratio of the NR peptide; this substrate concentration, lower than in the SEC experiments, was chosen to ensure adequate resolution of the various charge state series, which is critical for unambiguous assignment of substrate-bound states. Due to suppression effects during nESI ionization, a relatively limited set of molar ratios could be investigated by in this way.
nESI-MS spectra were obtained according to a previously published protocol on an orthogonal time-of-flight mass spectrometer with a Z-spray source (LCT, Waters, Manchester, UK) in positive ion mode using the following parameters: capillary voltage, 1500 V; sample cone voltage, 120 V (unless otherwise specified); extraction cone voltage, 1V; and ion transfer stage pressure, 8.8 mbar. Spectra were calibrated externally using a 33 mg/ml solution of cesium iodide. Data were acquired and processed with MassLynx software (Waters, Manchester, UK), and are shown with minimal smoothing and without background subtraction. The relative abundances of the different oligomeric states were estimated from the intensities of the most abundant charge states for each construct and are expressed as a percentage of the total intensity.

[3] = Analytical SEC relative populations of oligomeric forms; format: physicochemical, human; details: Superdex 75, 4 °C, 50 mM Tris pH 7.4, 150 mM KCl
Experimental: (§1) Analytical SEC was performed at 4 °C using a Superdex 75 10/300 GL column (GE Healthcare LifeSciences, Little Chalfont, U.K.), which had previously been calibrated using a mixture of standard proteins (Gel Filtration LMW Calibration Kit; GE Healthcare LifeSciences, Little Chalfont, U.K.). Typically, samples of the various constructs contained 70 µM of protein in 50 mM Tris buffer at pH 7.4, with 150 mM KCl, 5 mM MgCl2 and were incubated for 15 min (unless otherwise specified) at room temperature before being loaded onto the column for analysis. To evaluate the reversibility of the oligomerization process, the different elution peaks obtained for each protein variant were subsequently analyzed after concentrating the different fractions using AmiconUltra-0.5, Ultracel-3 Membrane, 3 kDa (Millipore, Bedford, MA, USA). A similar analysis was also performed at 6 µM concentration for all the protein variants to allow for a direct comparison between the results obtained by SEC and MS experiments.
The influence of substrate binding on the oligomerization properties of all the variants was examined by using the well-characterized Hsp70 substrate, the NR peptide (NRLLLTG, Genemed Synthesis Inc., San Antonio, TX, USA). A 14-fold excess of the peptide was added in each case to a fresh protein sample, incubated for 1 h at room temperature, unless otherwise specified, and then loaded onto the Superdex 75 10/300 GL column for analysis. The relative quantities of the different protein species were estimated by analysing the chromatographic profile using a Gaussian function for each elution peak (OriginPro 8, Originlab, Northampton, MA, USA) and measuring the relative area under each peak.

[4] = Thermal denaturation monitored by far-UV CD; format: physicochemical, human
Experimental: Protein structural stability was analyzed by monitoring the CD signal at 222 nm upon thermal denaturation. Thermal runs were performed from 5 to 90 °C at a rate of 1 °C. min^-1. Data points were acquired every 0.1 °C with a response time of 2 s and a bandwidth of […]. After thermal denaturation, each protein sample was cooled to the starting temperature, and a second denaturation curve recorded in order to analyse the degree of reversibility of the denaturation process. Analysis of the thermal unfolding curves was performed assuming a three-state unfolding model.

[5] = Secondary structure content from far-UV CD; format: physicochemical, human; details: K2D software; 20 µM protein, 7 mM Tris pH 7.4, 170 mM KCl, 5 mM MgCl2; 25 °C
Experimental: Far-UV CD spectra for all protein variants were recorded using a Jasco J-810 spectropolarimeter equipped with a Peltier holder, using a 0.1 cm path length cuvette. Typically, samples contained 20 µM protein in 7 mM Tris buffer at pH 7.4, containing 170 mM KCl and 5 mM MgCl2. The far-UV CD spectra of all the variants in their native, thermally denatured and refolded states were recorded from 198 to 250 nm, and the spectrum of the buffer was systematically subtracted from the spectra of all protein samples. The secondary structure content was estimated from the far-UV CD spectrum for each protein variant using K2D software.

[6] = Tryptophan (W580) fluorescence emission; format: physicochemical, human; details: W580, excitation 295 nm
Experimental: Steady-state tryptophan fluorescence emission spectra of native, thermally denatured and refolded proteins were recorded from 300 to 400 nm, selectively exciting the only tryptophan residue in the SBD (W580) at 295 nm, using a Cary Eclipse spectrofluorimeter (Varian, Palo Alto, CA, USA). Excitation and emission band-passes were set to 5 nm each.

[7] = Analytical SEC, Stokes radius and oligomeric state; format: physicochemical, human
Experimental: as §1

[8] = 70 µM protein, 5 mM MgCl2, 15 min at room temperature, estimated error 3.5% (SD of 3-4 independent experiments)
[9] = 6-15 µM protein, 5 mM MgCl2, estimated error 3.5% (SD of 3-4 independent experiments)

B1: conalbumin: SEC standard protein (protein, UniProt P02789 20-705, looked up)
Ovotransferrin: APPKSVIRWCTISSPEEKKCNNLRDLTQQERISLTCVQKATYLDCIKAIANNEADAISLDGGQAFEAGLAPYKLKPIAAEVYEHTEGSTTSYYAVAVVKKGTEFTVNDLQGKTSCHTGLGRSAGWNIPIGTLLHRGAIEWEGIESGSVEQAVAKFFSASCVPGATIEQKLCRQCKGDPKTKCARNAPYSGYSGAFHCLKDGKGDVAFVKHTTVNENAPDQKDEYELLCLDGSRQPVDNYKTCNWARVAAHAVVARDDNKVEDIWSFLSKAQSDFGVDTKSDFHLFGPPGKKDPVLKDLLFKDSAIMLKRVPSLMDSQLYLGFEYYSAIQSMRKDQLTPSPRENRIQWCAVGKDEKSKCDRWSVVSNGDVECTVVDETKDCIIKIMKGEADAVALDGGLVYTAGVCGLVPVMAERYDDESQCSKTDERPASYFAVAVARKDSNVNWNNLKGKKSCHTAVGRTAGWVIPMGLIHNRTGTCNFDEYFSEGCAPGSPPNSRLCQLCQGSGGIPPEKCVASSHEKYFGYTGALRCLVEKGDVAFIQHSTVEENTGGKNKADWAKNLQMDDFELLCTDGRRANVMDYRECNLAEVPTHAVVVRPEKANKIRDLLERQEKRFGVNGSEKSKFMMFESQNKDLLFKDLTKCLFKVREGTTYKEFLGDKFYTVISSLKTCNPSDILQMCSFLEGK
[1]
  Stokes radius of SEC standard protein: 40.4 Å

B2: ribonuclease A: SEC standard protein (protein, UniProt P61823 27-150, looked up)
Ribonuclease pancreatic: KETAAAKFERQHMDSSTSAASSSNYCNQMMKSRNLTKDRCKPVNTFVHESLADVQAVCSQKNVACKNGQTNCYQSYSTMSITDCRETGSSKYPNCAYKTTQANKHIIVACEGNPYVPVHFDASV
[1]
  Stokes radius of SEC standard protein: 16.4 Å

B3: ovalbumin: SEC standard protein (protein, UniProt P01012 2-386, looked up)
Ovalbumin: GSIGAASMEFCFDVFKELKVHHANENIFYCPIAIMSALAMVYLGAKDSTRTQINKVVRFDKLPGFGDSIEAQCGTSVNVHSSLRDILNQITKPNDVYSFSLASRLYAEERYPILPEYLQCVKELYRGGLEPINFQTAADQARELINSWVESQTNGIIRNVLQPSSVDSQTAMVLVNAIVFKGLWEKAFKDEDTQAMPFRVTEQESKPVQMMYQIGLFRVASMASEKMKILELPFASGTMSMLVLLPDEVSGLEQLESIINFEKLTEWTSSNVMEERKIKVYLPRMKMEEKYNLTSVLMAMGITDVFSSSANLSGISSAESLKISQAVHAAHAEINEAGREVVGSAEAGVDAASVSEEFRADHPFLFCIKHIATNAVLFFGRCVSP
[1]
  Stokes radius of SEC standard protein: 30.5 Å

B4: C-term: truncated human Hsp70 (540-641), C-terminal segment of helix B, helices C-E and disordered C-terminal region (protein, UniProt P0DMV8 540-641, looked up, fragment)
chain: NALESYAFNMKSAVEDEGLKGKISEADKKKVLDKCQEVISWLDANTLAEKDEFEHKRKELEQVCNPIISGLYQGAGGPGPGGFGAQGPKGGSGSGPTIEEVD
[2]
  Dimer population: 0%
  Total oligomer population: 0%
  Trimer population: 0%
[3]; [8]
  Dimer population: 0%
  Monomer population: 100%
  Total oligomer population: 0%
[3]; [9]
  Dimer population: 0%
  Monomer population: 100%
  Total oligomer population: 0%
[4]; CD 222 nm, 20 µM protein, 7 mM Tris pH 7.4, 170 mM KCl, 5 mM MgCl2, three-state fit (C-term two-state), SE of fit
  ∆Hm, 1st transition: 51.5 ± 1.5 kcal/mol
[4]; CD 222 nm, 5 to 90 °C at 1 °C/min, 20 µM protein, 7 mM Tris pH 7.4, 170 mM KCl, 5 mM MgCl2, three-state fit (C-term two-state), SE of fit
  Tm, 1st transition: 49.9 ± 0.2 °C
[4]; far-UV CD, second denaturation curve after cooling
  Reversibility of thermal unfolding: reversibly
[5]
  Random-coil content estimated from far-UV CD: 33%
  α-helix content estimated from far-UV CD: 60%
  β-sheet content estimated from far-UV CD: 7%
[6]
  Red-shift of fluorescence emission maximum, native to refolded: not observed
[7]; analytical SEC, 1 to 125 µM, single elution peak at 11.8 ml
  Oligomeric state: monomeric
[7]; analytical SEC, from retention volume
  Stokes radius: 21.4 Å
[7]; under experimental conditions used
  Ability to dimerize in isolation: unable to dimerize in isolation
